Paper PMC10936776, “Structural and functional characterization of AfsR, an SARP family transcriptional activator of antibiotic biosynthesis in Streptomyces” (PLOS Biology, 2024)
Substitutions are numbered along the chain they refer to. Names and notes keep the numbering of the source. Values belong to the binder of their own block, whether it stands above or below them.

Assays:
[1] = target: SARP domain of Streptomyces coelicolor AfsR (residues 1 to 270) (S. coelicolor) (UniProt P25941); experiment: cryo-EM structure; SARP-TIC: 32 uM SARP preincubated with 5 uM afsS promoter DNA scaffold, mixed with 4 uM RNAP core, 16 uM σ^HrdB, 16 uM CarD, 32 uM RbpA; 25°C; 20 mM Tris-HCl pH 8.0, 50 mM KCl, 5 mM MgCl2, 3 mM DTT; Superose 6; nominal resolution 3.35 Å, SARP region 3.77 Å
[2] = target: T1, Streptomyces coelicolor RNA polymerase sigma factor σ^HrdB (S. coelicolor, UniProt P18183 1-511); experiment: as above; conditions: both partners purified
T1 construct: principal sigma factor HrdB, S. coelicolor; region 1.1 disordered in the map; Stood in the assay as part of the RNAP σ^HrdB-holoenzyme; also called σ subunit; σ R4 (region 4); source: purified as described previously [37]
T1 sequence: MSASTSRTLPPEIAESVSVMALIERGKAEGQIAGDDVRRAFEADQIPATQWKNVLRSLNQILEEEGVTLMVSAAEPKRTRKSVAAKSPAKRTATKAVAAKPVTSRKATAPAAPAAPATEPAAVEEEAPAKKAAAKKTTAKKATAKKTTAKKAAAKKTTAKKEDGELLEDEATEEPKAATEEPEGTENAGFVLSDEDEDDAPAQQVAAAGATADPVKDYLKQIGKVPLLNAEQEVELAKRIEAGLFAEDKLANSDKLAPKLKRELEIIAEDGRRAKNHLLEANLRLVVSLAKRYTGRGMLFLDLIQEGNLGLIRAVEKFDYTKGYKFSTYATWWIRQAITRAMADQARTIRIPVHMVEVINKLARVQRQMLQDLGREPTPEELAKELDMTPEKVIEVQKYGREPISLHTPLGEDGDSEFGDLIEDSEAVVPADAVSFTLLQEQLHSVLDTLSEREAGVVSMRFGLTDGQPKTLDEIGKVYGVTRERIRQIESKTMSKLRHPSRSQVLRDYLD

[3] = target: T2, Streptomyces coelicolor RNA polymerase β subunit (S. coelicolor, UniProt Q9L0L0 1-1161); experiment: as above; conditions: both partners purified
T2 construct: RNA polymerase subunit beta, S. coelicolor; Stood in the assay as a subunit of the RNAP core in the holoenzyme; also called RNAP β; β flap; source: S. coelicolor RNAP purified as described previously [37]

[4] = target: T3, Streptomyces coelicolor RNA polymerase β′ subunit (S. coelicolor, UniProt Q8CJT1 1-1299); experiment: as above; conditions: both partners purified
T3 construct: RNA polymerase subunit beta', S. coelicolor; Stood in the assay as a subunit of the RNAP core in the holoenzyme; also called RNAP β′; β′ ZBD; source: S. coelicolor RNAP purified as described previously [37]

[5] = target: T4, Streptomyces coelicolor RNA polymerase α subunit (S. coelicolor, UniProt P60312 1-340); experiment: as above; conditions: both partners purified
T4 construct: RNA polymerase subunit alpha, S. coelicolor; Stood in the assay as a subunit of the RNAP core in the holoenzyme; density for one αCTD is seen; also called αCTD (C-terminal domain of the α subunit); source: S. coelicolor RNAP purified as described previously [37]
T4 sequence: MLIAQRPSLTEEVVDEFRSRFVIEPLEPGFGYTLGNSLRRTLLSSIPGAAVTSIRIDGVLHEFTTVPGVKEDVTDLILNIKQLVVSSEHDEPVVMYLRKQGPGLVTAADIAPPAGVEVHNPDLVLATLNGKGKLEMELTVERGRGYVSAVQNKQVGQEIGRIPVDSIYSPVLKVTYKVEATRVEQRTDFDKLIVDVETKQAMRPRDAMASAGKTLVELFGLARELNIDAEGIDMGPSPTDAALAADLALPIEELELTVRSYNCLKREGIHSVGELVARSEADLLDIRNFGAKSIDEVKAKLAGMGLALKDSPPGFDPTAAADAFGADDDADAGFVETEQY

[6] = substrate: Nc1ncnc2c1ncn2[C@@H]1O[C@H](COP(=O)(O)OP(=O)(O)OP(=O)(O)O)[C@@H](O)[C@H]1O; experiment: Malachite green phosphate ATPase assay; format: biochemical, Streptomyces coelicolor; conditions: phosphomimetic 4E mutant, phosphatase treatment not stated, 5 μM protein, 20 mM Tris-HCl pH 7.5, 150 mM NaCl, 5 mM MgCl2, 30 min
[7] = target: the molecule itself; experiment: SEC; Superdex 200; 20 mM Tris pH 8.0, 150 mM NaCl, 5% glycerol; protein alone, without DNA
[8] = target: T2, Streptomyces coelicolor RNA polymerase …; experiment: cryo-EM structure; AfsR_(T337A)-TIC: 32 uM AfsR_(T337A) preincubated with 5 uM afsS promoter DNA and 1 mM ATPγS, mixed with RNAP core, σ^HrdB, CarD, RbpA; assembling buffer; Superose 6; nominal resolution 3.63 Å, SARP region 5.10 Å; conditions: both partners purified
[9] = target: T3, Streptomyces coelicolor RNA polymerase …; experiment: as above; conditions: both partners purified
[10] = target: the molecule itself; experiment: as above

stoichiometry N [1]: 2 | binding result [2]: binds | binding result [3]: binds | binding result [4]: binds | binding result [5]: binds
B1: SARP domain of Streptomyces coelicolor AfsR (residues 1 to 270) (domain or fragment, S. coelicolor, UniProt P25941 1-270, looked up)
chain: MDGGPRVPEQRRPGFPAEEEESGALRFGVLGPVRAWRDGETLATGSPQQRALLAALLLREGRTATAGELIDALWGEEPPSQALAAVRTYASRLRKVLDPGVLVSESGGYAVRGLAEGALDLARAQDLASAAEKARSAGDLCHARDLLRRALDLWDGEVLAGVPGPYAQTQRVRLGEWRLQLLETRLDMDLDQGCHAEAVSELTALTAAHPLRERLRELLMLALYRSGRQAEALAVYADTRRLLADELGVDPRPGLQELQQRILQADPALA
notes: AfsR, S. coelicolor M145, SARP domain, residues 1 to 270 (Met1-Ala270); Two protomers (upstream and downstream) stand on the afs box DNA in SARP-TIC; also called isolated SARP domain; wild-type SARP; source: E. coli BL21(DE3), purified (nickel-NTA, SEC Superdex 200)

B2: AfsR 4E mutant (S391E/T337E/T506E/S953E) (natural protein, S. coelicolor, UniProt P25941 1-993, looked up)
chain: MDGGPRVPEQRRPGFPAEEEESGALRFGVLGPVRAWRDGETLATGSPQQRALLAALLLREGRTATAGELIDALWGEEPPSQALAAVRTYASRLRKVLDPGVLVSESGGYAVRGLAEGALDLARAQDLASAAEKARSAGDLCHARDLLRRALDLWDGEVLAGVPGPYAQTQRVRLGEWRLQLLETRLDMDLDQGCHAEAVSELTALTAAHPLRERLRELLMLALYRSGRQAEALAVYADTRRLLADELGVDPRPGLQELQQRILQADPALAELSAATAETATATLRPAQLPATVSDFTGRAAFVRELSDVLSAASGESASGRVMAVSALAGIGGVGKETLAVHVAHRARAAFPDGQLYVDLQGAGARPAEPETVLGSFLRALGTADSAIPDELEERAALYRSVLDGRRVLVLLDNARDAAQVRPLLPGTDGCAALVTARVRMVDLAGAHLVDLDVMAPEEALALFTKIVGEERVASERQAALDVVGACGFLPLAIRIAASRLAARREWTVSVLAAKLADERRRLDELQAGDQAVEATFELGYGQLEPAQARAFRLLGLADGPDISLAAAAAVLDLPAQDTEDLLESLVDTSLLESAAPGRYRFHDLVRLYARACAERTERDGNAPSERGAALSRLLDFYLATAAGVYAIERPGDRLVDGLEPTEYPGLTFTEGSAALDWLYTEAAPLLACVRQSAGTARLRRAVDLLWAAKDLTESGANSHQYEATARAMCDATGSAADTRAEGRARTVLSDVLLVSGRIEHAEEEARLAMRLAGSAEDSAAVSWVANNRGLVCLHQRRYAEGKGLFHQAIAGFRATDNRAGEASALSNLSRAQLGMGNVAEAVDIARQGLAVYAELGRTMRLANGHFALGVALTRAGRHEEALGEFAEALDLFGDHRQRLWEGATNFRLAEVHLAAGRPSSAAQHAEQALALGCIGGDRMRGNVLALLGRALEALGQADRARACWREALSLYEQHDAQEVGEVRALLARSVAR
notes: AfsR, S. coelicolor, with glutamate substitutions at all 4 phosphorylation sites of NOD and TPR; Likely made like wild-type AfsR (pET28a, E. coli BL21(DE3))
Km [6]: 995 ± 152 µM | kcat [6]: 0.147 ± 0.00841 s⁻¹ | binding result [7]: binds

binding result [8]: binds | binding result [9]: binds
B3: AfsR T337A mutant (natural protein, S. coelicolor, UniProt P25941 1-993, looked up)
chain: B2 chain with E337A, E391S, E506T, E953S
notes: AfsR, S. coelicolor, full-length protein with T337A; Preincubated with afsS promoter DNA and 1 mM ATPγS for AfsR-TIC; Vector and host of the mutant are surmised from the wild type
binding result [10]: binds
